Measured values taken from publication PMC314469, “Protein Interaction Networks by Proteome Peptide Scanning” (PLoS Biology, 2004).

T1: Boi2 SH3 (BOI2_YEAST), P39969
T1 chain: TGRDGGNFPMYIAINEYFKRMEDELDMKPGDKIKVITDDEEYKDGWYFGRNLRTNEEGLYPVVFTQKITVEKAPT

T2: Boi1 SH3 (BOI1_YEAST), P38041
T2 chain: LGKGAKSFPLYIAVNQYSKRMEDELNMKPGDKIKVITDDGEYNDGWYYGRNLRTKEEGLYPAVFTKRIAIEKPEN

T3: Myo5 SH3 (MYO5_YEAST), Q04439
T3 chain: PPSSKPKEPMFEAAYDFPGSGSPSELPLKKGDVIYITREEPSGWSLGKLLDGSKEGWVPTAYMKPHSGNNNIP

T4: Rvs167 SH3 (RV167_YEAST), P39743
T4 chain: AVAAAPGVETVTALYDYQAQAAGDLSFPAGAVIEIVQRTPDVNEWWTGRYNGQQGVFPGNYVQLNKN

T5: Yhr016c SH3 (YSC84_YEAST), P32793
T5 chain: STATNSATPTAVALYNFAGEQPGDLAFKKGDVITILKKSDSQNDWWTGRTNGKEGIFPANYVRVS

T6: Yfr024 SH3 (LSB3_YEAST), P43603
T6 chain: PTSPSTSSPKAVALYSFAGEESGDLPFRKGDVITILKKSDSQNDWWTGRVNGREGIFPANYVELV


Assays:
Test in all cases: SPOT array
[1] = target: Sho1 SH3 (SHO1_YEAST), P40073
Sequence of Sho1 SH3 (SHO1_YEAST), P40073 (P40073 295-366): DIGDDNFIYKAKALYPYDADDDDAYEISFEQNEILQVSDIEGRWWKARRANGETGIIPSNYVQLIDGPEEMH

[2] = target: T1, Boi2 SH3 (BOI2_YEAST), P39969
[3] = target: T2, Boi1 SH3 (BOI1_YEAST), P38041
[4] = target: T3, Myo5 SH3 (MYO5_YEAST), Q04439
[5] = target: T4, Rvs167 SH3 (RV167_YEAST), P39743
[6] = target: T5, Yhr016c SH3 (YSC84_YEAST), P32793
[7] = target: T6, Yfr024 SH3 (LSB3_YEAST), P43603

Row | Binder | normalised SPOT signal, Boehringer light units (BLU); mean over the file's lines of this peptide [1] | normalised SPOT signal, Boehringer light units (BLU); mean over the file's lines of this peptide [2] | normalised SPOT signal, Boehringer light units (BLU); mean over the file's lines of this peptide [3] | normalised SPOT signal, Boehringer light units (BLU); mean over the file's lines of this peptide [4] | normalised SPOT signal, Boehringer light units (BLU); mean over the file's lines of this peptide [5] | normalised SPOT signal, Boehringer light units (BLU); mean over the file's lines of this peptide [6] | normalised SPOT signal, Boehringer light units (BLU); mean over the file's lines of this peptide [7]
1 | SWHPKTIPKQPMEI [YGL197W 260-273] | 187 | 40.7 | 26.3 | 343 | 90.4 | 79.8 | 1300
2 | DFIGRKSPDLPEYL [YLL006W 228-241] | 17.3 | 41.4 | 137 | 139 | 162 | 37.2 | 59.3
3 | DEALRYSPDAPIVL [YNL090W 103-116] | 49.5 | 16.1 | 37.1 | 127 | 32.9 | 22.9 | 50.8
4 | SRHLKLVPSTPMDI [YBR128C 258-271] | 225 | 102 | 441 | 362 | 83.7 | 40 | 546
5 | DDNVRPSPISPSIN [YLR337C 513-526] | 23.2 | 18.9 | 19.1 | 153 | 17.2 | 18.2 | 120
6 | DEPIRYAPGDPIEK [YNL132W 471-484] | 54.9 | 1 | 57.2 | 106 | 26.2 | 9.2 | 0.5
7 | DGKLKHIPRRPYEI [YEL007W 26-39] | 48.8 | 3.5 | 1850 | 307 | 68.6 | 48.7 | 315
8 | DFRGRAYPLSPHFN [YFL036W 825-838] | 975 | 1390 | 5020 | 785 | 1830 | 257 | 1600

The next lines start with the values.

Row | normalised SPOT signal, Boehringer light units (BLU); mean over the file's lines of this peptide [1] | normalised SPOT signal, Boehringer light units (BLU); mean over the file's lines of this peptide [2] | normalised SPOT signal, Boehringer light units (BLU); mean over the file's lines of this peptide [3] | normalised SPOT signal, Boehringer light units (BLU); mean over the file's lines of this peptide [4] | normalised SPOT signal, Boehringer light units (BLU); mean over the file's lines of this peptide [5] | normalised SPOT signal, Boehringer light units (BLU); mean over the file's lines of this peptide [6] | normalised SPOT signal, Boehringer light units (BLU); mean over the file's lines of this peptide [7] | Binder
9 | 33.5 | 16.6 | 0 | 231 | 52.7 | 19.2 | 62.3 | DETRKLTPSSPGDD [YPR173C 368-381]
10 | 27.7 | 27 | 91.8 | 285 | 30.2 | 10 | 12.9 | DENSKWQPSDPFTM [YOL157C 233-246]
11 | 23.4 | 0.5 | 187 | 57.8 | 25.4 | 74 | 34 | DDIIKDHPHIPNGQ [YOR360C 470-483]
12 | 27.6 | 25.9 | 41 | 49.2 | 84.8 | 60.1 | 112 | SNYSKIFPGIPISL [YOR245C 211-224]
13 | 14.3 | 33.7 | 73.9 | 118 | 14.4 | 25.1 | 73.4 | DEFNRNTPPQPSLL [YPL084W 526-539]
